Results: the supplement of paper PMC12042874
± gives the uncertainty stated by the source.

Experiment: amyloid nucleation score (Sup35N fusion, yeast selection) (log enrichment); library NNK3; higher = more nucleation; inactive = no reads after selection
Procedure, shortened: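 Sup35N fusions to peptides of 20 random codons were expressed in psi-negative yeast, induced 24 hours with 100 μM copper sulfate, and grown 7 days at 30°C on medium lacking adenine and uracil. Input and output plasmid inserts were sequenced by Illumina. The nucleation score is the DiMSum log enrichment of output over input reads, centred on the mode score of non-aggregating sequences. Sequences with under 100 input reads were excluded.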

Substance | amyloid nucleation score
TGYYWFLFWNMWDWHVCGSS | inactive
NAVLEFTPMFMFRTLSGRRV | inactive
RLHIVETLSYLNACWPDFSG | inactive
FAICMFRGYLLYFLGLEDEA | inactive
GVLVTANLYFWMEPSALPAM | inactive
PNARKMCMLFVTECFKVVPK | inactive
VDHRGALVEKFMNNSIWTSF | 0.122 ± 0.98
VDCMATSQGRIRKYVNFVIW | 2.35 ± 0.08
DGLIECWDFNRIMGLNKQNK | -1.33 ± 1.9
GLMRDCTTAMIGENDAFWSD | inactive
GLHLIFFSYHRWHVTLK | inactive
KINKREWRRFTVYSVFSHVS | 0.435 ± 0.35
CNYLTMSGF | inactive
MSPFADKRHLADILCVHGS | inactive
EAGSTLWCGWKRYASCGRAE | inactive
VVCIHLVVDTVC | inactive
GSSSSVYWFLDGCDTLKRHM | inactive
CQGIMDRRTSKRMPIANMVQ | inactive
IFNKVSLYNEMLVWVLTWSW | inactive
VESVRVLVINPNSDNQVLYL | inactive
CSGYSTNFGK | inactive
QYCVIMWPCIYFRVTFSF | inactive
NSSAKGFVQV | inactive

Substance | amyloid nucleation score
VGTGICKRPGYRAGSV | inactive
VTWAAMWASRRVIQVITLRL | inactive
DIKVMNLCLNWFFRLIHGV | inactive
ETYHCIV | inactive
AETQCSSYDLCDTPSLFDVR | inactive
DNWFN | inactive
TCMYLRDHR | -0.337 ± 0.98
FVILFVVFNYINALCDCNID | 0.377 ± 0.27
LYDDHFYDWQGYVRRRILDS | inactive
FFGPLPRTAIYQHILCTRNG | 0.665 ± 0.14
WIHSGSSHWLNACDRMDMTK | -0.753 ± 1.3
WSVSTQFPCFMSGSIGYNMS | inactive
TWGKRFYSGIMVQCIREEWA | -0.741 ± 1.7
CDRRFYRMNLCKNPFNYRFG | 0.55 ± 0.16
ICPIMNCVFFHRTDQSLSFN | 2.29 ± 0.05
VFNGFVLKVEQVSIGVC | inactive
RARLHSVAINDVHSFTVSLG | 0.004 ± 0.39
SCRNCDYLLCGNYHT | inactive
IHKCYT | inactive
FRMTPHIGALSNRLHVTTWL | -0.226 ± 0.7
PGREIVVPHFR | inactive
GIGIFSCLKSSVLCLIYLSR | -0.113 ± 0.31
HIVMVLRSLAYVSSSTHGRR | inactive

Substance | amyloid nucleation score
FISRRIRNVILWCYFM | inactive
MRSLGSAMWR | inactive
VLADYGTM | inactive
MLSSCRVFRLFCFNCVTLNR | 0.816 ± 0.16
LYVLSGVGICIRGDRLSC | 0.535 ± 0.36
FWIVSVTYFNCLVDWGEGCM | 2.05 ± 0.091
SVGVWKYFDLWAAGFLSSSG | inactive
SYLRQDDVEMAVIWTGHMSV | inactive
GVTLFSVVQTFLVSTLCKIE | inactive
FDIYLCDMYSLIFVCTGRLP | -0.544 ± 0.66
CSNAGTCPCLCYRAILDQWV | -0.401 ± 0.84
RGTKAYMGVVCSTPTIFCPN | inactive
FGSYFSLKVFYNYF | 2.38 ± 0.055
WDSWESYFASHHSF | inactive
QHRSESIFFVIKSLLLRGCI | inactive
ISDDICSVKVSGRRACHWIG | inactive
IGGEYGFLSCYSIGVTTFYV | inactive
EVVVELIMLS | inactive
GSDVFTFRWGNMLRTCTTGR | inactive
GTMYVGSGGYEKL | inactive
FYPRMYTISQMLDAGQDDAA | inactive
CIYCIVA | 2.64 ± 0.087
LFYDCELGLTSVRWLGWGRN | inactive

Substance | amyloid nucleation score
VFMKNLNKIDILTSGLDHIY | inactive
CDRLIVHLFSHLDSGSSVVL | inactive
FKNRYFHLPCSDLLYHSLGR | inactive
CLSSSETPFSGDRTMA | -0.046 ± 0.52
SDIAVLRRLNCMKVKLKLWH | inactive
CILSVHGGILLFSIGAAFGR | 0.779 ± 0.27
RNVCMSEVGSVDKSSLLHGN | inactive
WMPQFCLRCSSVV | inactive
HWFLYLPFSPYCIPRIPDYL | inactive
SRLEGIAGVKKGVMVNQKRL | inactive
RSLAEGFYGAVPEGSVRFRN | inactive
VSRGDTINIISSVDCVKTYF | inactive
PTRFMTMKETKPVCWWLGNR | -0.114 ± 1.1
SILDWYVSVVRRGA | inactive
GFIMEYDEY | inactive
FSIDTNGSCYRIDARHVK | inactive
SSDSIKTWWKNTNVICVSGG | inactive
AEHYVRYRRCSATWRICWMY | inactive
SLPCSKCAVKLFL | inactive
LKRLSCFTGSPR | inactive
SPAQDQLAVRWVGVDRMMWW | -0.434 ± 0.86
GMFCNGINTNYVPVYYYRSV | 1.27 ± 0.17
FNDSLSLTVTRVIF | inactive

Substance | amyloid nucleation score
VWTGHCMASFVRFTCSVVDD | inactive
KVCGCSILLLKLRGVNRVVS | inactive
FMYMVNMVNVTVN | inactive
SGTNLFRF | inactive
SSGWNFPCSPSVMPDVVGVG | inactive
ICLILARINPSIRDLLG | 0.298 ± 0.74
SILWSPIDEGLIIVSSVTFL | inactive
CYFQYGNWFHLEGRNRSRSN | 1.17 ± 0.19
NVVCNDPPPGVYEDLGWTGI | inactive
ISAGFAGNN | inactive
LLNYFRLMCYRSFL | inactive
HSWFFGFIFWLLNDHSIHYG | inactive
HLFLKHMLLTYCKPCGW | inactive
SVESQGLWGCCILSKR | 2.7 ± 0.06
QHMFQAWFTVNKFSRGECGF | inactive
FIIPSSMTHMARKNIVRAW | inactive
LEFSYPCRWA | inactive
YYSVMCRVRVA | inactive
ERRIDG | 1.23 ± 0.094
RCDIFTTTFEFREVHCLWVG | inactive
FSMCCTWYFKFHL | 0.596 ± 0.14
IARINGMLASSGVASTM | inactive
TGPMGI | inactive

Substance | amyloid nucleation score
LRVRLCSGSSRIWLEVLVRR | inactive
AAVWRVVKRNLCHEIGERTA | inactive
HRVRYVGPENSQNLCIRDYY | inactive
WPGLRCDSGQDKRNMF | -0.039 ± 1
TSRLFHKFLGYAPSRTNSSL | inactive
YYFCMLS | 2.55 ± 0.072
TQDIKLFHRMDFQLSIKMNS | inactive
FYMDWTGHLQKFNP | inactive
VLGLFSTYDSFVCFN | inactive
CGWMEGLCQLYENKEMKHWH | -0.261 ± 0.88
SYMVSLRIVLFFDYR | inactive
SWYGQLLCVTVVRYHCAPCG | inactive
KHFLQVVRSSNRTVSARFPL | inactive
HLVADWQCHSDGFKSWLGNW | inactive
VIALVSGEYSWFRILCTPFY | inactive
LVAGSTRTSLLVLRALGAWL | inactive
YNRLNRL | inactive
NYSRPEL | 0.782 ± 0.17
GQYPEYYWYLGTEFFTVVLF | inactive
ELGFFCSL | inactive
GLRLFYAHRYAC | inactive
QMSCNQRNISMGFKIGRFYM | 1.5 ± 0.061
LKKVCDECRFSESPLVPEVA | 1.06 ± 0.13

Substance | amyloid nucleation score
TIFFMYWLSPGFSPPI | 0.148 ± 0.39
DSLSFGVVIFLYFKPGEFLY | inactive
GMNKLL | inactive
SGIVLESLLISRFFKGFHRD | 0.926 ± 0.25
TVRFLVHYITAKGKSVGITK | inactive
MITLDCLNNNI | inactive
IVLYQATCRSIKRVCVLETL | inactive
MTPFIKNS | inactive
FYISREALLSIASRTLRARQ | inactive
RGLYKVD | inactive
NWRMVQNQVVWVLRLNTYHY | inactive
NLFLGCQN | inactive
FKITEYVSFNGTRPDNISMN | -0.082 ± 0.85
RSVVMYALSIFYVRFTANQN | 0.755 ± 0.23
LLKLNS | inactive
REVVRDWERCY | inactive
LKMMSLLTSEATSMHHGVNW | inactive
LEGLMANVMRGFRSVVPATW | inactive
LYIIFERD | inactive
FSPMYFNWMIGVVCSGIVGN | -0.349 ± 0.8
IADSKHTNCFRYMSHVW | inactive
